Target: T1, human Ndc80 loop segment (residues 370–509) with a cysteine added at each end (human, UniProt O14777 370-509)
T1 chain: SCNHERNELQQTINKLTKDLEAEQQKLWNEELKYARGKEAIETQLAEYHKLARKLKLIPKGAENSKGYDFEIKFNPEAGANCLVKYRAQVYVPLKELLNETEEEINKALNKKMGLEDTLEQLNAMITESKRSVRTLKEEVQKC
Assay: crystal structure

binding result: binds
B1: human Nuf2 segment (residues 252–347) with a cysteine added at each end (domain or fragment)
chain: CKNYKEKMKDTVQKLKNARQEVVEKYEIYGDSVDCLPSCQLEVQLYQKKIQDLSDNREKLASILKESLNLEDQIESDESELKKLKTEENSFKRLMIVC

Reference: article doi:10.1101/2022.11.09.515846 (bioRxiv, 2022)
